Here are results for five substances from patent publication US9447158B2.

This test deals with MAPKAP Kinase II (MK2).
KALNdRQLGVAA (peptide) showed a % of … [SEQ ID NO: 124] Reaction Velocity at an Inhibitor Concentration of 100 µM of 306%.

Consider KALNRQdLGVAA (peptide), for which the % of … [SEQ ID NO: 124] Reaction Velocity at an Inhibitor Concentration of 100 µM was 357%.

KALdNRQLGVAA (peptide) displayed a % of … [SEQ ID NO: 124] Reaction Velocity at an Inhibitor Concentration of 100 µM of 95%.

As to KALNRQLGdVAA (peptide), the % of … [SEQ ID NO: 124] Reaction Velocity at an Inhibitor Concentration of 100 µM is 260%.

The substance KALNRdQLGVAA (peptide) returned a % of … [SEQ ID NO: 124] Reaction Velocity at an Inhibitor Concentration of 100 µM of 276%.
